Read-outs that look alike come from different tables or passages of the source.

Holding throughout (test): MAPPIT
The target in assay [1] is Gag MAPPIT prey (pMG2-Gag). The conditions noted are these: stimulation with Epo; parent: est. 38; read off a plot.
Assay [2] has as its target Gagpol MAPPIT prey (pMG2-Gagpol).
Assay [3] has the same target. The source holds these as a separate data set.

With “Apobec3G MAPPIT bait (pCEL-Apobec3G) (from UniProt Q9HC16) YFW125-127DY”, the response (fold induction) in assay [1] was 2.2.
With “Apobec3G-GFP MAPPIT bait (pCEL-Apobec3G-GFP) (from UniProt Q9HC16) D128G”, the percent of parent in assay [2] was 11 % of WT.
With “Apobec3G-GFP MAPPIT bait (pCEL-Apobec3G-GFP) (from UniProt Q9HC16) E191V”, the percent of parent in assay [2] was 8 % of WT.
As to “Apobec3G-GFP MAPPIT bait (pCEL-Apobec3G-GFP) (from UniProt Q9HC16) H81L”, the percent of parent in assay [3] was 33 % of WT.
The same measure, in the same setting: as for “Apobec3G-GFP MAPPIT bait (pCEL-Apobec3G-GFP) (from UniProt Q9HC16) K79M”, the figure is 32 % of WT.
Regarding “Apobec3G-GFP MAPPIT bait (pCEL-Apobec3G-GFP) (from UniProt Q9HC16) K270E”, the percent of parent in assay [3] is 67 % of WT.
As for “Apobec3G-GFP MAPPIT bait (pCEL-Apobec3G-GFP) (from UniProt Q9HC16) N20D”, the percent of parent in assay [2] is 22 % of WT.
For the substance “Apobec3G-GFP MAPPIT bait (pCEL-Apobec3G-GFP) (from UniProt Q9HC16) Q237K”, the percent of parent in assay [3] is 46 % of WT.
Consider “Apobec3G-GFP MAPPIT bait (pCEL-Apobec3G-GFP) (from UniProt Q9HC16) R30L”, for which the percent of parent in assay [3] and in assay [2] was 5 % of WT throughout.
“Apobec3G-GFP MAPPIT bait (pCEL-Apobec3G-GFP) (from UniProt Q9HC16) R78W”: the percent of parent in assay [3] is 6 % of WT.
With “Apobec3G-GFP MAPPIT bait (pCEL-Apobec3G-GFP) (from UniProt Q9HC16) R122C”, the percent of parent in assay [2] was 5 % of WT.
As for “Apobec3G-GFP MAPPIT bait (pCEL-Apobec3G-GFP) (from UniProt Q9HC16) R136S”, in assay [2], the percent of parent is 24 % of WT.
For “Apobec3G-GFP MAPPIT bait (pCEL-Apobec3G-GFP) (from UniProt Q9HC16) R238C”, in assay [3], the percent of parent is 56 % of WT.
Turning to “Apobec3G-GFP MAPPIT bait (pCEL-Apobec3G-GFP) (from UniProt Q9HC16) W94R”, in assay [2], the percent of parent was 13 % of WT.
Turning to “Apobec3G-GFP MAPPIT bait (pCEL-Apobec3G-GFP) (from UniProt Q9HC16) W269G”, in assay [3], the percent of parent was 33 % of WT.
With “Apobec3G-GFP MAPPIT bait (pCEL-Apobec3G-GFP) (from UniProt Q9HC16) Y222N”, the percent of parent in assay [3] is 6 % of WT.

Source of the values: article PMC3438196.
